Laboratory results taken from patent US12692310B2, “ASIC1 channel antagonist antibody” (ShanghaiTech University, priority 2019, dated 2026).

Key:
[1] = target: T1, hASIC1a-eYFP (Homo sapiens, UniProt P78348); experiment: Western blot and immunoprecipitation of 6H7 cell lysate; format: binding; design: expressed in transfected cells
T1 sequence (P78348 1-528): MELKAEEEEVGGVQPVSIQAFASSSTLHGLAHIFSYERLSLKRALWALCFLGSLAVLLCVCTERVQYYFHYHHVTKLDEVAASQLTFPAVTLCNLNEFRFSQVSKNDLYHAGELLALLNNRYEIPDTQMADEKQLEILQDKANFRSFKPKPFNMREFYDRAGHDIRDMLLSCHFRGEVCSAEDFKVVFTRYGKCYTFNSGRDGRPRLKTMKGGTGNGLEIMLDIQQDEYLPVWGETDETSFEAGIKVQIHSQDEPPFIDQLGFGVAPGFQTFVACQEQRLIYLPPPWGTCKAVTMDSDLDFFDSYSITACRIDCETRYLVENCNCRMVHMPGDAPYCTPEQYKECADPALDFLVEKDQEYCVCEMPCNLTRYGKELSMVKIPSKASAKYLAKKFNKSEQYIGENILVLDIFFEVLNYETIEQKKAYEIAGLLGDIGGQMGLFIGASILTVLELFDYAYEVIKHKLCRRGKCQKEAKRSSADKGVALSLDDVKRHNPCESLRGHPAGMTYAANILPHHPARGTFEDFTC
Text: To characterize the interaction between ASC06-IgG1 and hASIC1a, the 6H7 stable line expressing the hASIC1a-eYFP fusion protein was used in a Western blot analysis. […] In contrast, both the commercial goat polyclonal anti-ASIC1 antibody and the anti-eYFP antibody were able to detect the hASIC1a-eYFP protein in the 6H7 lysate at molecular mass around 100 kDa (FIG. 13A and data not shown).
ASC06-IgG1 was used to pull down native hASIC1a-YFP in cell lysate followed by anti-eYFP Western blot for hASIC1a-YFP detection.

[2] = target: T2, rASIC1a-eYFP (Rattus norvegicus, UniProt P55926); experiment: Species/subtype selectivity, FACS binding and ICC, transfected CHO-K1 cells; format: cell-based
T2 construct: expressed in transfected cells; host or cells: CHO-K1, transient
T2 sequence (P55926 1-526): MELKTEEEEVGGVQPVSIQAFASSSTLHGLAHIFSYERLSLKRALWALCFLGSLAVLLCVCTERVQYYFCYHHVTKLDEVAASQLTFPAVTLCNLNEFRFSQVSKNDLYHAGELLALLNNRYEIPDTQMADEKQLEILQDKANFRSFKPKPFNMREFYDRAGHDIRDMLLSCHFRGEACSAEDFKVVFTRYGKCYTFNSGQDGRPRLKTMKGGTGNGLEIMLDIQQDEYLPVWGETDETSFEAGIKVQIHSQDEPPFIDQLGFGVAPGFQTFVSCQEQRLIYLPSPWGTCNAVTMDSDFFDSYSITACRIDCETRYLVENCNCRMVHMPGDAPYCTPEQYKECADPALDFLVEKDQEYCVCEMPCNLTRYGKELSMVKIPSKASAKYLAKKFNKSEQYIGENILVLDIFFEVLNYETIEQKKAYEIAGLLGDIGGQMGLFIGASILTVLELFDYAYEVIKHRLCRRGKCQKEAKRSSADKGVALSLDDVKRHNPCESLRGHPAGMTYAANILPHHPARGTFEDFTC
Procedure: (§1) Cell Membrane Colocalization Studies Using Immunocytochemistry (ICC). Cells (CHO-K1) were seeded onto the poly-D-lysine-coated glass bottom 24-well plates at a concentration of 2×10^5 cells per mL. After 12 h of cultivation, the CHO-K1 cells were transfected with ASIC plasmids by Lipofectin 3000 reagent. Twenty-four hours after transfection, the cells were fixed in 4% paraformaldehyde and incubated for 30 min in a blocking solution (5% goat serum in PBS). The resulting cells were incubated with […] ASC06-IgG1 at 4° C. overnight followed by three PBS washes for 5 min each and incubation with the Alexa555-conjugated goat anti-human secondary antibody (Life Technology). After three additional PBS washes for 5 min each, the nuclei of the cells were stained with DAPI (#10236276001; Roche). The ICC analysis was performed on a laser scanning confocal microscopy (ZEISS LSM710) with a 63×N.A. 1.4 objective at 25° C. Images were collected on a 1,024×1,024-pixel EM-CCD camera. Data acquisition and analyses were performed with the ZEN 2012 professional software.
(§2) To test the species and subtype selectivity of ASC06-IgG1, vectors encoding human ASIC1b-eYFP fusion, rat ASIC1a-eYFP fusion, mouse ASIC1a-eYFP fusion, hASIC2a-eYFP fusion, hASIC2b-eYFP fusion, and hASIC3a-eYFP fusion were constructed. The CHO-K1 cells were transiently transfected with these plasmids. FACS binding assay and immunocytochemistry (ICC) were carried out to determine if ASC06-IgG1 is able to bind to the cell surface-expressed ASIC homologs and isotypes.

[3] = target: T3, mASIC1a-eYFP (Mus musculus, UniProt Q6NXK8); experiment: as above; format: cell-based
T3 construct: expressed in transfected cells; host or cells: CHO-K1, transient
T3 sequence (Q6NXK8 1-526): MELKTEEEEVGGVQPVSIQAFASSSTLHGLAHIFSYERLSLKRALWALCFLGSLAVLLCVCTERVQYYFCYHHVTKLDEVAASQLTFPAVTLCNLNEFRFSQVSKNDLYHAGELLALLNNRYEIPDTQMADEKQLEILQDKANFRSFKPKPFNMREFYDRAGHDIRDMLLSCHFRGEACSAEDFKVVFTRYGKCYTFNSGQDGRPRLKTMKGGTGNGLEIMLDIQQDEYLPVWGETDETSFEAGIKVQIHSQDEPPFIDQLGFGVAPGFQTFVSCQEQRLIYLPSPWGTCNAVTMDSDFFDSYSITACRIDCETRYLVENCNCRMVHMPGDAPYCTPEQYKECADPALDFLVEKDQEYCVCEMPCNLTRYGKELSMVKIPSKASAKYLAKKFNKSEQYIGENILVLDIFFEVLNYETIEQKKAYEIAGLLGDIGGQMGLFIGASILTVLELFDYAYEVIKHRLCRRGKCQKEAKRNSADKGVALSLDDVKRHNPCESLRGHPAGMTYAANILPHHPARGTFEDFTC
Procedure: as §1, §2

[4] = target: T1, hASIC1a-eYFP; experiment: as above; format: cell-based; design: overexpress the full-length hASIC1a (1-528 amino acids) protein fused with eYFP; expressed in transfected cells; host or cells: CHO-K1, transient
Procedure: as §1, with “Data acquisition and analyses were performed with the ZEN 2012 professional software.” left out
as §2, with “The CHO-K1 cells were transiently transfected with these plasmids.” left out

B1: ASC06-IgG1: ASC06 antibody converted into a full length IgG1 form (antibody, V domains shown)
VH: QVQLQQSGGGLVQPGGSLRLSCAASGFTFSSYAMSWVRQAPGKGLEWVSAISGSGGSTYYADSVKGRFTISRDNSKNTLYLQMNSLRAEDTAVYYCAKDSFYGYSKGDWGQGTLVTVSS
VL: QSALTQPASVSGSPGQSITISCTGTSSDVGAYNYVSWYQQQPGKAPKLMIYGVSNRPSGVSNRFSGSKSGNAASLTISGLQAEDEADYYCSSYTSSSTYVFGTGTKLTVLG
recognition of hASIC1a in cell lysate in Western blot ([1]; denatured lysate of 6H7 cells): could not recognize | pull down of native hASIC1a-YFP, anti-eYFP Western blot ([1]; immunoprecipitation): recognized hASIC1a in a conformation-dependent manner | FACS recognition of rat ASIC1a ([2]; FACS): recognized | ICC membrane co-localization with rASIC1a-eYFP ([2]; ICC staining): membrane co-localization | FACS recognition of mouse ASIC1a ([3]; FACS): recognized | ICC membrane co-localization with mASIC1a-eYFP ([3]; ICC staining): membrane co-localization | FACS recognition of human ASIC1a ([4]; FACS): recognized | ICC membrane co-localization with hASIC1a-eYFP ([4]; ICC staining): membrane co-localization
